Test results taken from patent publication US20250282885A1 (VST BIO, published 2025).

Columns and labels:
[1] = target: T1, human Sdc2 (human, UniProt P34741 19-144, limits assumed); assay: Octet tandem binning; saturating Ab m7 19844-R3-P1-E07
T1 construct: Antigen of the Octet tandem binning, loaded on biosensors at 100 nM; also called huSdc2; hSdc2

[2] = target: T2, pig Sdc2 (pig, UniProt F1S0L5 19-145); assay: Octet BLI, heading box over the sensorgram; the box prints nm, the table gives 2.71E-09 M
T2 construct: also called pSdc2

[3] = target: T1, human Sdc2; assay: Octet tandem binning; saturating Ab f12 19838-6-N03-A
[4] = target: T1, human Sdc2; assay: Octet tandem binning; saturating Ab f3 19838-6N03-A
[5] = target: T1, human Sdc2; assay: Octet tandem binning; saturating Ab f11 19838-20-H19-A
[6] = target: T1, human Sdc2; assay: Octet tandem binning; saturating Ab f9 19838-6-E17-A
[7] = target: T1, human Sdc2; assay: Octet tandem binning; saturating Ab m6 19838-20H19-AA (marked non-binding ligand)
[8] = target: T1, human Sdc2; assay: Octet tandem binning; saturating Ab m5 19844-R4M-P3-A12 (row boxed, self-self >0.09)
Method in brief: (§1)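 Each competing antibody (5 μg/ml, 180 s) is tested on Sdc2-loaded sensors (antigen at 100 nM) already saturated with another antibody (25 μg/ml, 240 s). Its response is expressed relative to binding without prior saturation.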

[9] = target: T1, human Sdc2; assay: Octet tandem binning; saturating Ab m2 19838-8G17-A
[10] = target: T1, human Sdc2; assay: Octet tandem binning; saturating Ab m8 19844-R4M-P1-B01 (marked non-binding ligand)
[11] = target: T2, pig Sdc2; assay: Octet BLI, HIS1K sensor loaded with pigSdc2, antibody as sample; Full R2 0.9632
Experimental: (§2) In order to characterize the binding affinity and in vivo/in vitro functional ability of the twelve clones generated by the previous studies and disclosed in Table 1, a series of assays were performed on each clone. These assays measured the affinity of each antibody clone for human, pig, and mouse Sdc2 using an Octet® binding assay system. Additionally, the functional ability of each clone to inhibit VEGFA-driven permeability (see Santiago, et al. (2021) J Am Heart Assoc. 10(18):e020521) was assessed in two therapeutic settings: a “prevention” study in which three concentrations of antibody (5 μg/ml, 10 μg/ml, 15 μg/ml, 20 μg/ml, and/or 40 μg/ml depending on the study) were pre-incubated for an hour before administration of 100 ng/ml of VEGFA, and a “treatment” study in which 3 hours of pre-treatment with 100 ng/ml VEGFA were followed by treatment with antibody at 20 μg/ml or 40 μg/ml. Results are shown for 8-G17 in FIG. 8 and FIG. 9, 20-H19-AB in FIG. 10 and FIG. 11 (FIG. 12 for monkey ECs), R3-P3-C11 in FIG. 13 and FIG. 14, R4M-P3-E06 in FIG. 15 and FIG. 16, R3-P3-E09 in FIG. 17 and FIG. 18, R3-P1-C02 in FIG. 19 and FIG. 20, R3-P3-A12 in FIG. 21 and FIG. 22, R4M-P3-A12 in FIG. 23 and FIG. 24, and R4M-P1-A10 in FIG. 25 and FIG. 26.

[12] = target: T1, human Sdc2; assay: Octet BLI, heading box over the sensorgram
[13] = target: T3, mouse Sdc2 (mouse, UniProt P43407 19-145, limits assumed); assay: Octet BLI, heading box over the sensorgram
T3 construct: Immobilised on Maxisorp plates for panning and ELISA; also called mSdc2; moSdc2
T3 sequence (P43407 19-145 limits assumed): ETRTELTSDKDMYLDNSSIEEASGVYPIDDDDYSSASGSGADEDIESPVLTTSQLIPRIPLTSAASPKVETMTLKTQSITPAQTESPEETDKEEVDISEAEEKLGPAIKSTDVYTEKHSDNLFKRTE

[14] = target: T1, human Sdc2; assay: Octet tandem binning; saturating Ab m3 19844-R3-P1-C02 (row boxed, self-self >0.09)
[15] = target: T1, human Sdc2; assay: Kd (human Sdc2), summary table of the mAbs
[16] = target: T1, human Sdc2; assay: Octet tandem binning; saturating Ab m1 19838-20H19-AB
[17] = target: T1, human Sdc2; assay: Octet tandem binning; Buffer in place of a saturating Ab
[18] = target: human Sdc2 on Human Umbilical Vein Endothelial Cells (HUVEC) (human, UniProt P34741 19-201); assay: cell-based or functional assay
Sequence of human Sdc2 on Human Umbilical Vein Endothelial Cells (HUVEC) (P34741 19-201 limits assumed): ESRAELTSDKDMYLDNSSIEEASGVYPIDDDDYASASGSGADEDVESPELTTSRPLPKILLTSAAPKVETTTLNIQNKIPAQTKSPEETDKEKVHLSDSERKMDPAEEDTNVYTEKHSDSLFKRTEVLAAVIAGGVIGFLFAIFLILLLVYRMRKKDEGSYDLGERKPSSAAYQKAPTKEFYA

[19] = target: T1, human Sdc2; assay: Octet tandem binning; saturating Ab f7 19844-R3-P3-A12
[20] = target: T1, human Sdc2; assay: Octet tandem binning; saturating Ab f10 19838-10-I12-A
[21] = target: T1, human Sdc2; assay: Octet tandem binning; saturating Ab f4 19844-R3-P3-C11
Method in brief: as §1

[22] = target: T1, human Sdc2; assay: Octet BLI, HIS1K sensor loaded with huSdc2, antibody as sample; Full R2 0.9628
Experimental: as §2

[23] = target: T1, human Sdc2; assay: Octet tandem binning; saturating Ab f6 19844-R3-P3-E09
Method in brief: as §1

[24] = target: T1, human Sdc2; assay: Octet tandem binning; saturating Ab f5 19844-R4M-P3-E06
[25] = target: T1, human Sdc2; assay: Octet tandem binning; saturating Ab f8 19844-R4M-P2-C02
[26] = target: T1, human Sdc2; assay: Octet BLI, HIS1K sensor loaded with huSdc2, antibody as sample; Full R2 0.9663
[27] = target: T1, human Sdc2; assay: Octet tandem binning; saturating Ab m4 19844-R4M-P1-A10
[28] = target: T2, pig Sdc2; assay: Octet BLI, heading box over the sensorgram; the box prints nm, the table gives 4.74E-09 M
[29] = target: T3, mouse Sdc2; assay: Octet BLI, HIS1K sensor loaded with moSdc2, antibody as sample; Full R2 0.8674
[30] = target: T3, mouse Sdc2; assay: Octet BLI, HIS1K sensor loaded with moSdc2, antibody as sample (curves 111.1, 37, 12.3, 4.1, 1.4, unit inferred); Full R2 0.8674
[31] = target: T2, pig Sdc2; assay: Octet BLI, HIS1K sensor loaded with pigSdc2, antibody as sample; Full R2 0.9708
[32] = target: T1, human Sdc2; assay: Octet BLI, heading box over the sensorgram; remark: listed apart in the source
[33] = target: T3, mouse Sdc2; assay: Octet BLI, heading box over the sensorgram; remark: listed apart in the source
[34] = target: T1, human Sdc2; assay: Octet BLI, HIS1K sensor loaded with huSdc2, antibody as sample; Full R2 0.9943
[35] = target: T1, human Sdc2; assay: Octet BLI, heading box over the sensorgram; remark: listed apart in the source

T1 sequence (P34741 19-144 limits assumed): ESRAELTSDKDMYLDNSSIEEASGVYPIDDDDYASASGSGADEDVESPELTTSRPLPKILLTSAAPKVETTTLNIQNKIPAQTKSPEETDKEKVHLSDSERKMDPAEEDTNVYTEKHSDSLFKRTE

Binder | raw competing-Ab binding signal [1] | raw competing-Ab binding signal [3] | raw competing-Ab binding signal [4] | raw competing-Ab binding signal [5] | raw competing-Ab binding signal [6] | raw competing-Ab binding signal [7] | raw competing-Ab binding signal [8] | raw competing-Ab binding signal [9] | raw competing-Ab binding signal [10] | raw competing-Ab binding signal [14] | Kd [15] [nM] | raw competing-Ab binding signal [16] | raw competing-Ab binding signal [17] | % Inhibition of VEGFA-induced permeability at 24hrs (20ug/ml) [18] [%] | raw competing-Ab binding signal [19] | raw competing-Ab binding signal [20] | raw competing-Ab binding signal [21] | raw competing-Ab binding signal [23] | raw competing-Ab binding signal [24] | raw competing-Ab binding signal [25] | other results
R4M-P1-A10 (antibody, human IgG1, kappa, V domains shown) VH: EVQLVETGGGVVQPGRSLRLSCAASGFTFSSYAMHWVRQAPGKGLEWVAVISYDGSNKYYADSVKGRFTISRDNSKNTLYLQMNSLRAEDTAVYYCARDRGWADAFDIWGQGTMVTVSS VL: QAGLTQPPSVSKGLRQTATLTCTGNSNNVGYQGAVWLLQYQGHPPKVLSNRNNDRPSGISERLSASRSGNTASLTITGLQPEDEGDYFCAAWDGSLRGWVFGGGTKLTVLR | 0.353 | 0.406 | 0.362 | 0.444 | 0.34 | 0.32 | 0.302 | 0.377 | 0.355 | 0.255 | 1.82 | 0.439 | 0.337 | 100 | 0.246 | 0.418 | 0.193 | 0.203 | 0.358 | 0.211 | Kd [2]: ~2.71 nM; Kd [11]: 2.71 nM; koff [11]: 0.00459 s⁻¹; kon [11]: 1.69e+06 M⁻¹ s⁻¹; Kd [12]: ~1.82 nM; Kd [13]: ~1.85 nM; Kd [22]: 1.82 nM; koff [22]: 0.00663 s⁻¹; kon [22]: 3.65e+06 M⁻¹ s⁻¹
R3-P1-C02 (antibody, human IgG1, kappa, V domains shown) VH: EVQLVESGGGVVQPGGSLRISCVASEFPFSDFGMHWVRQAPGKGLEWVAFVRSHGSGKYYADSVKGRFTISGDKSKSTLYLQMESLRPDDAAVYYCTTLADVWGQGTTVTVSS VL: not shown | 0.24 | 0.233 | 0.221 | 0.286 | 0.227 | 0.254 | 0.231 | 0.207 | 0.204 | – | 2.81 | 0.27 | 0.223 | 100 | 0.103 | 0.235 | 0.0466 | 0.0516 | -0.0088 | 0.0877 | Kd [26]: 2.81 nM; koff [26]: 0.00946 s⁻¹; kon [26]: 3.36e+06 M⁻¹ s⁻¹; raw competing-Ab binding signal [27]: 0.126; Kd [28]: ~4.74 nM; koff [29]: 0.114 s⁻¹; Kd [30]: 2.44 nM; Kd [31]: 4.74 nM; koff [31]: 0.0103 s⁻¹; kon [31]: 2.16e+06 M⁻¹ s⁻¹; Kd [32]: ~2.81 nM; Kd [33]: ~2.44 nM
R3-P3-A12 (antibody, human IgG1, kappa, V domains shown, human IgG1 kappa from the phage campaign) VH: EVQLVESGGGLVQPGRSLRLSCGVSGFTFSSFGMHWVRQAPGKGLEWVAVISNDALHKNYGDSVKGRFTVTRDNSRNTLFLQMTSLRPEDTAVYYCAKDVVRGHTSGSLGSWGQGTLVTVSS VL: not shown | 0.618 | 0.794 | 0.704 | 0.529 | 0.594 | 0.636 | 0.61 | 0.548 | 0.619 | 0.562 | 2.8 | 0.459 | 0.599 | 90 | – | 0.3 | 0.0654 | 0.322 | 0.618 | 0.562 | raw competing-Ab binding signal [27]: 0.539; Kd [34]: 2.8 nM; koff [34]: 0.00131 s⁻¹; kon [34]: 469000 M⁻¹ s⁻¹; Kd [35]: ~2.8 nM
